# Key:
# ERα [1] = target: T1, ERα (Homo sapiens, UniProt P03372); test: Stably transfected ECV304/T24-ERα-ELAM-HMG and -VCAM3 clones, luciferase activity; settings: stable ECV304/T24-ERα clone, IL1 induced
# T1 sequence (P03372 1-595): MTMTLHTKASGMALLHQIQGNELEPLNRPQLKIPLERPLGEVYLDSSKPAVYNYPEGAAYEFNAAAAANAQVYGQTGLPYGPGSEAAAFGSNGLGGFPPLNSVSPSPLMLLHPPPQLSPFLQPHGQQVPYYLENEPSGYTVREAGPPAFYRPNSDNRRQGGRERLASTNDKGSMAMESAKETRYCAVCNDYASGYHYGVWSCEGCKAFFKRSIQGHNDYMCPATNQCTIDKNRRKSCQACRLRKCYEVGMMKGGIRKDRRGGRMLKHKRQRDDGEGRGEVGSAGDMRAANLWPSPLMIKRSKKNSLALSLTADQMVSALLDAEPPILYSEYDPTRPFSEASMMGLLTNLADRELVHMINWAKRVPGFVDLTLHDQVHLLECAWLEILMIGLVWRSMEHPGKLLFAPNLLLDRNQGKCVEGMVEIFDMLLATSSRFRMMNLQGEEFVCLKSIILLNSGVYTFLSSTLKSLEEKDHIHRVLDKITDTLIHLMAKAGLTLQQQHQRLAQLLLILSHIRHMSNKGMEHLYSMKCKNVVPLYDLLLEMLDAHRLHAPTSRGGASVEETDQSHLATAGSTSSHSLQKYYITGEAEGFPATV
# ERα [2] = target: T1, ERα; test: Transrepression of IL-1β induced NF-κB responsive promoter-reporters, U-2 OS transiently transfected with ERα; format: cell-based; parameters: expressed in transfected cells; settings: ER alpha transfected, IL-1 induced
# Description: pKCRE-ERα, pKCRE-ERβ and pNGV1-GR contain the human wild-type estrogen receptor α (ERα), ERβ or GR respectively under control of the SV40 promoter. The pCMV4-c-Rel expression vector was produced by cloning of the coding region of c-Rel into the pCMV4 vector (Andersson et al., 1989). pGL3-ELAM, pGL3-VCAM and pGL3-ICAM have been constructed based on PCR using the sequences as outlined in appendix 1. The luciferase reporter plasmid 3*NF-κB-TK was constructed by inserting three repeats of the NF-κB binding site from the ICAM promoter (van de Stolpe et al.; J. Biol Chem. 269: 6185-6192. 1994) in front of the herpes simplex virus thymidine kinase (HSV-TK) promoter. The TK promoter was cloned into the Bgl II-site of pGL3-basic (Promega). The triple repeat of NF-κB binding sites was constructed by annealing the oligonucleotide primers 5′-[…]-3′ and 5′-[…]-3′ followed by PRC amplification and subcloning in the pCR™2.1 vector. The insert was excised using HindIII, blunted with Klenow DNA polymerase and ligated into the SmaI site of pGL3-tk-luc. 4xERE-TATA Luc (plasmid nr. 460) contains four repeats of an estrogen responsive element followed by a TATA box and a luciferase gene. The pSV-β-Galactosidase (pSVβ) control vector (Promega) served as a positive control vector for monitoring transfection efficiencies of mammalian cells. The SV40 early promoter and enhancer drive transcription of the LacZ gene which encodes the β-Galactosidase enzyme. The yeast 2-hybrid constructs pGAD424-ERα, pGAD424-ERαdAB and pGAD424-ERβ were constructed by cloning respectively the human ERα, the ERα without the AB domain and the human ERβ cDNA in pGAD424. pGAD424-ERα LBD was constructed by cloning the LBD of ERα, obtained by PCR, in the EcoRI and SalI sites of pGAD424 vector. pGBT9-c-Rel was constructed by cloning the c-Rel fragment, obtained by PCR on pCMV4-c-Rel in the EcoRI and BamHI sites of pGBT9. The p65/RelA cDNA was obtained by PCR on the pCMV4-p65.
# For transient transfections, cells were seeded in 6-well plates (2.10^5 cells/well). After two or three days the cells were transfected with reporter, expression vectors and β-galactosidase control vector. Two different experimental settings were used. For testing transrepression of IL-1β induced promoter activity, cells were transfected with 1 μg reporter construct, 1 μg expression vector (containing either ERα, ERβ or GR), and 0.25 μg of β-galactosidase control plasmid.
# ERα [3] = target: T1, ERα; test: NF-κB-responsive reporters in ECV304-ERα cells, IL-1 induced; format: cell-based; parameters: expressed in transfected cells; settings: ECV304-ERα cells (A)
# Description: This example describes an assay, based on the E-selectin or VCAM promoter in combination with ERα in the T24/ECV cell line. Note that for the ER/NF-κB transrepression assay the ECV304 cell line was used, which was believed to be the only endothelial cell line available that was suitable for producing stable ERα expressing clones. At a later stage ATCC reported that the ECV304 cells were no endothelial cells but, instead, were T24 bladder carcinoma cells. In order to enhance the cytokine induction and amount of repression by estrogens, multiple copies of NF-κB responsive regions of the E-Selectin and VCAM promoters were used to construct new reporters named ELAM1a, ELAM2, ELAM-HMG, VCAM1-2, VCAM2, and VCAM3 (for reporter details see appendix 1).
# ECV304-ERα cells stably express ERα and endogenous c-Rel, whereas COS cells were transiently transfected with ERα, and, where indicated, c-Rel. Both cell types were co-transfected with the indicated E-selectin (ELAM) or VCAM promoter derived reporters.
# Human osteosarcoma U-2 OS (HTB-96), monkey kidney COS-1 (CRL-1650) and human ECV304 (CRL-1998) cells have been obtained from ATCC (American Type Culture collection). ECV304 cells were sold by ATCC as human endothelial cells, however at a later stage ATCC informed us that this cell line was in fact the human bladder epithelial carcinoma cell line T24. Therefore, these cells are called T24/ECV in this report. ECV304/T24(-ERα), U-2 OS and COS-7 cells were grown in a 1:1 mixture of phenol red free Dulbecco's modified medium (DMEM) and Ham's F12 medium (=M505), supplemented with 10% fetal calf serum (FCS). Experiments were performed in M505+10% FCTS (fetal calf serum treated with dextran-coated charcoal to deplete serum from steroid activity).
# The six NF-κB responsive reporters pHGL3-ELAM 1a, pHGL3-ELAM 2, pHGL3-ELAM HMG, pHGL3-VCAM 1-2, pHGL3-VCAM 2 and pHGL3-VCAM 3 (plasmid nr. 1921-1926 respectively) were constructed by ligating annealed primers in the Kpn I and Sac I sites of pHGL3-TATA. The primers were based on the NF-κB-RE sequences in the ELAM and the VCAM promoter (see Appendix 1). Several copies of the NF-κB-RE's were cloned in order the gain a higher absolute luciferase signal. The ELAM HMG construct contains a double repeat, while the other constructs contain three NF-κB -RE's. For primer and reporter sequences, see appendix 1.
# For transient transfections, cells were seeded in 6-well plates (2.10^5 cells/well). After two or three days the cells were transfected with reporter, expression vectors and β-galactosidase control vector. Two different experimental settings were used. For testing transrepression of IL-1β induced promoter activity, cells were transfected with 1 μg reporter construct, 1 μg expression vector (containing either ERα, ERβ or GR), and 0.25 μg of β-galactosidase control plasmid. For testing transrepression in combination with c-Rel or ReLA overexpression, cells were transfected with 1 μg reporter construct, 1 μg expression vector (containing either ERα, ERβ or GR) and 0.1 or 1.0 μg expression vector containing c-Rel or RelA and 0.25 μg of β-galactosidase control vector. Equivalent amounts of DNA were obtained by adding the appropriate expression vector that lacks an insert. Transient transfection was performed using lipofectin reagent (Life Technologies). […] The transfected cells were incubated overnight with test compounds prior to cell lysis. Measurement of luciferase and P-galactosidase activity were performed using respectively the luciferase assay system (Promega) and Galacto-light plus (Tropix) according to the manufacturers' protocols and measured on the Victor 1420 multilabel counter, Wallac.
substance,measurement,setting,value
IL-1: cytokine used to induce NF-κB responsive reporter activity,"luciferase activity, ELAM-HMG clone 2B8",ERα [1],8410
same,"luciferase activity, ELAM-HMG clone 2F4",ERα [1],1566
same,"luciferase activity, VCAM3 clone 3A10",ERα [1],3907
same,"luciferase activity, VCAM3 clone 4B6",ERα [1],2122
same,"luciferase activity, 3*NFkB-reporter",ERα [2],1836839
same,"luciferase activity, ELAM+ reporter",ERα [2],99757
same,"luciferase activity, ICAM reporter",ERα [2],908172
same,"luciferase activity, VCAM reporter",ERα [2],30296
same,"luciferase activity, ELAM1a reporter",ERα [3],1818 cps
same,"luciferase activity, ELAM2 reporter",ERα [3],39383 cps
same,"luciferase activity, ELAM− reporter",ERα [3],160167 cps
same,"luciferase activity, VCAM1-2 reporter",ERα [3],3741 cps
same,"luciferase activity, VCAM2 reporter",ERα [3],19464 cps
same,"luciferase activity, VCAM3 reporter",ERα [3],22767 cps
same,"luciferase activity, VCAM reporter",ERα [3],3099 cps
